Literature values, collected in article PMC2817915.
Where “and” joins values, the source holds several entries; their conditions need not be identical. Equal values may be shown once.

Assays:
Conditions in all cases: native HEWL; ligand state not stated
Asp66 = Asp66 (UniProt position 84, RWWCNDGRTPG)
Asp101 = Asp101 (UniProt position 119, KKIVSDGNGMN)
Glu7 = Glu7 (UniProt position 25, VFGRCELAAAM)
Asp48 = Asp48 (UniProt position 66, TNRNTDGSTDY)
Asp87 = Asp87 (UniProt position 105, ALLSSDITASV)
Asp119 = Asp119 (UniProt position 137, RCKGTDVQAWI)
Asp52 = Asp52 (UniProt position 70, TDGSTDYGILQ)
Glu35 = Glu35 (UniProt position 53, CAAKFESNFNT)
His15 = His15 (UniProt position 33, AAMKRHGLDNY)
Asp18 = Asp18 (UniProt position 36, KRHGLDNYRGY)

Question: With “Hen egg-white lysozyme (HEWL, lysozyme C) (Gallus gallus)” as the substance, how does the pKa (Asp66) read?
Answer: The pKa was 2.00.

Question: And the pKa (Asp101)?
Answer: Its pKa is 4.09.

Question: What about the pKa (Glu7) of the same substance?
Answer: The pKa was 2.85.

Question: What about the pKa (Asp48) of the same substance?
Answer: The pKa was 2.50.

Question: And the pKa (Asp87)?
Answer: The pKa was 2.07.

Question: And the pKa (Asp119)?
Answer: Its pKa is 3.20.

Question: What about the pKa (Asp52) of the same substance?
Answer: Its pKa is 3.68 and 3.6−3.76.

Question: And the pKa (Glu35)?
Answer: The pKa was 6.20.

Question: What about the pKa (His15) of the same substance?
Answer: Its pKa is 5.71.

Question: What about the pKa (Asp18) of the same substance?
Answer: Its pKa is 2.66.
